# Results published in publication PMC13618070.
# Biological target: DCR-1•DRH-1 complex (DCR-1•(OSF)DRH-1) (C. elegans) (UniProt P34529)
# Assay: pull-down
substance,measurement,value
"RDE-4 truncation R1R2 (dsRBM1 and dsRBM2, ends with D243) (from UniProt G5EBF5 1-243) (domain or fragment)",percent recovery normalized to WT RDE-4,8%
